# Literature values in paper PMC7568816 (Gastroenterology Research and Practice, 2020).
# Settings: due to proteolytic cleavage by dipeptidyl peptidase IV; ref [15]
# Method: Endogenous GLP-2 is composed of 33 amino acids and has a short half-life of about 7 minutes due to proteolytic cleavage by dipeptidyl peptidase IV [15]. Chemical substitution of the amino acid alanine to […] at position 2 extends the half-life of GLP-2, and this molecule (teduglutide) is approved for the treatment of short bowel syndrome.
substance,measurement,value
Endogenous GLP-2: enteroendocrine hormone composed of 33 amino acids,half-life,about 7 minutes
